Laboratory results published in patent US9339535.

Target: PapMV coat protein CPΔN5 (disks) (Papaya mosaic virus) (UniProt P16596)
Experiment: EMSA
Conditions: shift with 500 ng (22 pmol as printed) protein in 10 µl, 165 fmol RNA; cooperative; weak affinity; room temperature 60 min

PapMV 5' non-coding 80 nt RNA probe
binding: 500 ng
